Experimental data reported in patent US20250297021A1 (SHANDONG SIMCERE BIOPHARMACEUTICAL CO NO 1, published 2025).
“And” between values parts separate entries of the source, which are not always exact repeats. Equal entries are not always repeated.

Tests used:
human BCMA on cells [1] = biological target: T1, human BCMA on cells (human, UniProt Q02223 1-184); assay: FACS, RPMI8226 cells
T1 construct: whole, on cells; also called H929 cells; U266 cells
T1 sequence (looked up): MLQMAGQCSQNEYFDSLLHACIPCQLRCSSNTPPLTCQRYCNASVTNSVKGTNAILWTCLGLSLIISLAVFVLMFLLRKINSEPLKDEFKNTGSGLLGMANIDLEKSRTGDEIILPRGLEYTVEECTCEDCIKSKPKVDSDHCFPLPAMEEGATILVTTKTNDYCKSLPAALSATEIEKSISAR
Procedure: (§1) The desired cells were scale-up cultured in T-75 cell culture flasks to the logarithmic growth phase, and the cells were pipetted into a single cell suspension. After the cells were counted, the cells were centrifuged and the cell pellet was resuspended in FACS buffer (PBS+2% fetal calf serum) to 2×10⁶ cells per ml, and the suspension was added to the 96-well FACS reaction plate at 50 μl per well, then the sample to be tested of the chimeric antibody was added at 50 μl per well and the mixture was incubated at 4° C. for 1 h. The obtained mixture was centrifuged and washed 3 times with a PBS buffer. […] The obtained mixture was centrifuged and washed 3 times with a PBS buffer. 100 μl of the mixture was taken for detection and result analysis by FACS (FACS Canto™, purchased from BD Company). Data analysis was performed by software (FlowJo) to obtain the mean fluorescence intensity (MFI) of the cells. Then, a software (GraphPad Prism8) was used for analysis, data fitting and EC50 calculation. The results are shown in Table 10 and FIGS. 10A-10B, FIGS. 11A-11B, and FIGS. 12A-12B. All seven chimeric antibodies bind to three types of BCMA-expressing endogenous cells.

human BCMA on cells [2] = biological target: T1, human BCMA on cells; assay: FACS, U266 cells
Procedure: as §1

human BCMA on cells [3] = biological target: T1, human BCMA on cells; assay: FACS, H929 cells
Procedure: as §1

human BCMA on cells [4] = biological target: T1, human BCMA on cells; assay: FACS, H929 cells; remark: listed apart in the source
Procedure: (§2) H929 cells, U266 cells and RPMI8226 cells were subjected to scale-up culture in T-75 cell culture flask to logarithmic growth phase, and the cells were pipetted to single cell suspension. After counting the cells, centrifugation was performed and the cell pellet was resuspended in FACS buffer (PBS+2% fetal calf serum) to 2×10⁶ cells per ml, and the obtained suspension was added to a 96-well FACS reaction plate at 50 μl per well.

human BCMA-His protein [5] = biological target: T2, human BCMA-His protein (human, UniProt Q02223 1-54); assay: competition ELISA, coated human BCMA; blocked ligand hAPRIL-biotin
T2 construct: bought; also called human BCMA protein; not shown: His tag
T2 sequence (looked up): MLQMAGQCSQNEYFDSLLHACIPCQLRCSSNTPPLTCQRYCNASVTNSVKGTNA

human BCMA-His protein [6] = biological target: T2, human BCMA-His protein; assay: ELISA, coated human BCMA-His
human BCMA on cells [7] = biological target: T1, human BCMA on cells; assay: FACS, U266 cells; remark: listed apart in the source
Procedure: as §2

human BCMA on cells [8] = biological target: T1, human BCMA on cells; assay: FACS, RPMI8226 cells; remark: listed apart in the source
Procedure: as §2

monkey BCMA-His protein = biological target: T3, monkey BCMA-His protein (monkey, UniProt A0A2K5UD97 1-53); assay: ELISA, coated monkey BCMA-His
T3 construct: bought; monkey species not further stated for this product; also called monkey BCMA protein

human BCMA-His protein [9] = biological target: T4, human BCMA-His protein (human, UniProt Q02223 1-54); assay: SPR, antibody captured on Protein A chip, BCMA-His as analyte
T4 construct: Analyte in the SPR assay; also called human BCMA protein; BCMA antigen protein; not shown: His tag
T4 sequence (looked up): T2 sequence (looked up)
Procedure: (§3) A sample buffer and a running buffer were HBS-EP+ (10 mM HEPES, 150 mM NaCl, 3 mM EDTA and 0.05% surfactant P20) (GE Healthcare; BR-1006-69). The flow-through cell was set to 25° C. The sample block was set to 16° C. Both were pretreated with the running buffer. In each cycle, an antibody to be tested was first captured with a Protein A chip, and then a single concentration of BCMA antigen protein was injected. The binding and dissociation processes of the antibody and the antigen protein were recorded, and finally Glycine pH 1.5 (GE Helthcare; BR-1003-54) was used to complete chip regeneration. Binding was measured by injecting different concentrations of BCMA-His in solution for 240 s with a flow rate of 30 μL/min. The concentration started from 200 nM (see the detailed results for the actual concentration in the test) and was diluted at 1:1, making a total of 5 concentrations. The dissociation phase was monitored for up to 600 s and was triggered by switching from sample solution to running buffer. The surface was regenerated by washing with a 10 mM glycine solution (pH 1.5) for 30 s at a flow rate of 30 μL/min. Bulk refractive index difference was corrected by subtracting the response obtained from the goat anti-human Fc surface. Blank injection was also subtracted (=double reference). For calculation of apparent KD and other kinetic parameters, Langmuir 1:1 model was used. The binding rate (Kₐ), dissociation rate (Kdis) and binding affinity (KD) of the chimeric antibodies to human BCMA protein are shown in the table, wherein REGN5459-hlgG1 and HPN217-hHcAb antibodies were used as controls.
The specific method was the same as that in Example 6. The binding rate (Kₐ), dissociation rate (Kdis) and binding affinity (KD) of the humanized antibodies to human BCMA protein are shown Table 38, wherein REGN5459-hlgG1 antibody is used as a control.

[10] = biological target: T5, BCMA expressed endogenously on U266 and H929 cells (UniProt Q02223 1-184, limits assumed); assay: FACS on U266 cells
T5 construct: whole, on cells; The cell line (U266 or H929) is named under assay in each row; also called B cell maturation antigen; CD269
T5 sequence (looked up): T1 sequence (looked up)
Procedure: as §1
The specific method was the same as that in Example 5 (C). First, the binding of humanized antibodies to U266 cells was detected. Based on the results, some humanized antibodies were selected and tested for binding to H929 cells. […]

human BCMA-His protein [11] = biological target: T6, human BCMA-His protein (human, UniProt Q02223 1-54); assay: SPR, antibody captured on Protein A chip, BCMA-His in solution, 1:1 Langmuir
T6 construct: Bought protein; also called human BCMA protein; BCMA antigen protein; not shown: His tag
T6 sequence (looked up): T2 sequence (looked up)
Procedure: as §3

T3 sequence (A0A2K5UD97 entry or part of it limits assumed): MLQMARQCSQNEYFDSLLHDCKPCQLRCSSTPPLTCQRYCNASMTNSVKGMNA

B1: REGN5459-hIgG1 (antibody, V domains shown)
VH: EVQLVESGGGLVQPGGSLRLSCAASGFTFSNFWMTWVRQAPGKGLEWVANMNQDGSEKYYVDSVKGRFTISRDNAKSSLYLQMNSLRAEDTAVYYCARDREYCISTSCYDDFDYWGQGTLVTVSS
VL: not shown
In the case of B1, the EC50 (human BCMA on cells [1]) is reported as 6.79 nM and 4.52 nM, the EC50 (human BCMA on cells [2]) is reported as 9.52 nM and 12.8 nM and the EC50 (human BCMA on cells [3]) is reported as 8.39 nM and 7.74 nM. For the same binder, the EC50 (human BCMA on cells [4]) was 6.78 nM, the “IC50 (read off the curve)” value (human BCMA-His protein [5]) was roughly 5 nM and the “EC50 (read off the curve)” value (human BCMA-His protein [6]) was roughly 0.1 nM. For the same binder, the EC50 (human BCMA on cells [7]) was 9.12 nM, the EC50 (human BCMA on cells [8]) was 10.4 nM and the “EC50 (read off the curve)” value (monkey BCMA-His protein) was roughly 0.1 nM.

B2: REGN5459-hIgG1 (antibody, V domains shown)
VH: B1 VH
VL: not shown
notes: Positive control antibody
In the case of B2, the Kd (human BCMA-His protein [9]) is reported as 0.233 nM, the koff (human BCMA-His protein [9]) is reported as 0.000178 s⁻¹ and the kon (human BCMA-His protein [9]) is reported as 766000 M⁻¹ s⁻¹. The EC50 [10] was 9.81 nM and 19.4 nM and 9.49 nM and 18.2 nM.

B3: REGN5459-hIgG1 (antibody, V domains shown)
VH: B1 VH
VL: not shown
notes: also called REGN5459-hlgG1; control antibody
Work on B3 yielded a Kd (human BCMA-His protein [11]) of 0.2 nM, a koff (human BCMA-His protein [11]) of 0.00017 s⁻¹ and a kon (human BCMA-His protein [11]) of 850000 M⁻¹ s⁻¹.

B4: HPN217-hHcAb (VHH)
VHH: EVQLVESGGGLVQPGRSLTLSCAASTNIFSISPYGWYRQAPGKQRELVAAIHGTSTLYADSVKGRFTISRDNAKNSIYLQMNSLRPEDTALYYCNKVPWGDYHPGNVYWGQGTQVTVSS
notes: also called control antibody
In the case of B4, the Kd (human BCMA-His protein [11]) is reported as 0.818 nM, the koff (human BCMA-His protein [11]) is reported as 0.00273 s⁻¹ and the kon (human BCMA-His protein [11]) is reported as 3.34e+06 M⁻¹ s⁻¹.
